Experiments:
[1] = biological target: urea transporter ApUT from Actinobacillus pleuropneumoniae (Actinobacillus pleuropneumoniae); assay: native gel or EMSA
[2] = biological target: urea transporter ApUT from Actinobacillus pleuropneumoniae (Actinobacillus pleuropneumoniae); assay: cross-linking
[3] = biological target: urea transporter ApUT from Actinobacillus pleuropneumoniae (Actinobacillus pleuropneumoniae); assay: electron microscopy of negatively stained 2D crystals

Measured: stoichiometry N

urea transporter ApUT from Actinobacillus pleuropneumoniae (from UniProt A0A2Z6AQW9 1-300) (natural protein)
2: all assays above

— PMC2682783
